The record followed here is patent US20110212110A1 (INNATE PHARMA, published 2011).

Test [1] concerns the target T1, human TLR4 expressed in 293T cells (293T-TLR4 transfectants) (human, UniProt O00206 24-839).
T1 construct: also called Toll-Like Receptor 4
Briefly: IHC on paraffin-embedded cell pellet, ENVISION amplification. Here is the method: 40F9.6 was tested on tonsil tissue with different detection systems, in order to identify the detection system yielding the strongest signal, with the lowest […]. The ENVISION System commercialized by DAKO A/S (Glostrup, Denmark) was selected. ENVISION is an amplification system based on an HRP-labeled polymer conjugated to secondary antibodies. Tissue sections were dewaxed and rehydrated before the antigen unmasking procedure in boiled citrate buffer (pH6). Endogenous peroxydases were blocked by a 3% solution of H₂O₂.
40F9.6 was tested in a series of paraffin-embedded samples.

The target in test [2] is T2, recombinant human His-tagged TLR3 extracellular domain protein (R&D systems, #1487-TR-050) (human, UniProt O15455 24-704).
T2 construct: Bought protein; also called recombinant human TLR3; rec TLR3; not shown: His tag
Briefly: ELISA, His-tagged TLR3 or TLR4 on Ni-NTA plates, hybridoma supernatant, goat anti-mouse F(ab) IgG-HRP. From the text:
Immune spleen cells were fused with X63.Ag8.653 immortalized B cells, and cultured in the presence of irradiated spleen cells. 40 culture plates were obtained and evaluated in a first screen for TLR3 binding using an ELISA developed for detection of binding to TLR3. Briefly, His-tagged recombinant TLR3 protein (R&D systems, #1487-TR-050) was coated on Ni-NTA 96-wells plates (Qiagen). […] Positive supernatants were selected and tested for lack of binding to TLR4. Briefly, His-tagged rec TLR4 protein (R&D systems, #3146-TR-050) were coated on Ni-NTA 96-wells plates (Qiagen). […] TLR4 was chosen as a 2nd screen in order to discriminate among wells selected in the 1st screen, where anti-His specific antibody from TLR3 specific antibody were used.
Cloning of hybridomas of potential interest. 42 potentially interesting hybridomas selected from the initial screening were cloned by limiting dilution techniques in 96-wells plates, and 304 subclones were tested in a series of screens as follows. […] All supernatants yielding a ratio above 10 for DO obtained in TLR3 ELISA to DO obtained in TLR4 ELISA were selected as specific for TLR3. Among them was supernatant from well F9 of plate 40 (40F9).

B1: monoclonal antibody 40F9 (clone 40F9.6) (antibody, mouse IgG1, V domains shown)
VH: QIQLVQSGPELKKPGETVKISCKASGYTFTNYGMNWVKQAPGKGLKWMGWINANTGEPTYAEEFKGRFAFSLETSDSTAYLQINNLKNEDTATYFCASDYDYWGQGTTLTVSS
VL: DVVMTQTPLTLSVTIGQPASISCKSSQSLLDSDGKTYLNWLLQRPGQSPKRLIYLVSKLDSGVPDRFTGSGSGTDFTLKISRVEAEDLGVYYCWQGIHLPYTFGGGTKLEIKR
notes: Mouse hybridoma antibody (Balb/c); also called supernatant from well F9 of plate 40
Take B1: the binding result in test [1] was “no binding (tested: 10 µg/ml)”. The “ratio of DO obtained in TLR3 ELISA to DO obtained in TLR4 ELISA” value in test [2] was 10.
